To fix the notation:
B1: Hammerhead Ribozyme (parent)
chain: ACCGGAUGUGCUUUCCGGUCUGAUGAGUCCGUGAGGACGAAACAG

The data set covers variants of B1. Put plainly: self-cleavage, relative activity (ratio to wild type); higher = more cleavage; co-transcriptional.
In the case of G10C G39A, the self-cleavage worked out at 0.368.
For the variant G8A U9G, the self-cleavage was 0.85.
For U7G A44G the value was 1.82.
In the case of C29G A41U, the self-cleavage worked out at 0.29.
The same measure for C38A A40U: 0.307; for U9A A41C: 0.455.
With C3G U12A, the self-cleavage was 0.352.
The same measure for U13A G33A: 1.29; for G36A A44G: 0.75; for C38U A40U: 0.348.
For C2A G31U the value was 0.828.
Turning to C3U C30G, the self-cleavage amounted to 0.727.
As for G4C C43G, the self-cleavage was determined as 0.315.
Regarding C29A A34U, the self-cleavage was found to be 0.563.
For A37C A40C the value was 0.285.
For G36A A41G the value was 0.344; for A6U G31U, 0.889.
As for C2G G36A, the self-cleavage came out at 0.3.
The same measure for U9G G33A: 0.988.
For A37U the value was 0.799; for A23C C29U, 0.337.
Turning to A6G U32C, the self-cleavage stood at 0.931.
Take U12A A23G: the self-cleavage is 0.394.
With U13G A37G, the self-cleavage is 0.868.
For G27A G31C the value was 0.864; for A34U A37C, 0.572.
For U9G G45C, the self-cleavage amounted to 0.462.
As to U24C C43G, the self-cleavage amounted to 0.36.
The same measure for C11G A40G: 0.413.
For C11A G36A the value was 0.847.
G25C G36A: the self-cleavage was found to be 0.305.
G17C C30G: the self-cleavage worked out at 0.398.
For G36A A40C the value was 0.319.
The same measure for C16A A23G: 0.357; for C20A A23U: 0.36.
The same measure for C3U U14G: 0.78.
Take U12G U14A: the self-cleavage came out at 0.832.
For C11U U12A the value was 1.3.
The same measure for G17U C20U: 0.501; for G18A G45U: 0.469; for U13C U19G: 0.311.
In the case of G4C A26G, the self-cleavage was determined as 0.276.
For U21G A41U the value was 0.333; for A40C A42C, 0.369.
The same measure for G31A A42G: 0.298.
The same measure for U13C C30A: 1.54; for A1G C38A: 0.973; for U9A C11U: 0.572.
As for G8U U28A, the self-cleavage turned out to be 0.966.
For G8U U28G the value was 0.789; for G33C A34U, 1.33; for G8A C16G, 1.03.
The same measure for A6C G18C: 0.311.
As to G5U U12A, the self-cleavage is 1.1.
Turning to C29G G39U, the self-cleavage was 0.334.
The same measure for U7C A42C: 0.3; for A6C U9G: 0.578.
The same measure for G5A C29G: 0.464; for C2G G39C: 0.289.
The same measure for C38A A44U: 0.396.
As to G18U A34U, the self-cleavage was 0.51.
The same measure for G10C A34C: 0.424; for U19G G31U: 0.451.
For U21A C43G the value was 0.32; for U12C C29U, 0.912; for C38A G39A, 0.325.
For G22U U24A the value was 0.316; for C15G G35A, 0.468.
Consider A37G C38A, for which the self-cleavage amounted to 0.639.
For G25C A42U the value was 0.332; for C15U G33U, 1.02; for U19C C30G, 0.459.
For C2U G17C the value was 0.375; for U28G A40C, 0.383; for G27C C30G, 0.459.
Turning to U9G U13A, the self-cleavage worked out at 1.93.
For U12G A42U the value was 0.321.
The same measure for G5U G27U: 0.366.
For U14A A41U the value was 0.296; for A1C G33C, 0.321.
For the variant C29U A34G, the self-cleavage amounted to 0.657.
Turning to U13G U19G, the self-cleavage came to 0.314.
The same measure for C3A G45U: 0.448.
For G39U A44U the value was 0.372; for G10C G31C, 0.704; for A26C G35C, 0.489.
The same measure for U7G C38G: 0.521.
Regarding G22C U24A, the self-cleavage worked out at 0.365.
For U12A U13C the value was 1.05; for C15G G31C, 0.792.
For U19A A41G the value was 0.312; for G33A A34C, 1; for A34U C38U, 0.799.
For A40C C43G the value was 0.33; for C2G G45A, 0.349; for C43U A44U, 0.346.
On to G35A G39U, for which the self-cleavage is 0.328.
On to A23C U32A, for which the self-cleavage was determined as 0.466.
For G22C G31A the value was 0.25; for A6U U21A, 0.517; for C15U A23G, 0.271.
Regarding G4U G33C, the self-cleavage was determined as 0.416.
Regarding A1C G35U, the self-cleavage came out at 0.435.
In the case of C20G A34U, the self-cleavage was 0.383.
For U12C U13A the value was 1.36; for C16A A34C, 0.799.
For U13A C38G the value was 0.728.
For G17U G25C the value was 0.319; for G25C C29A, 0.243; for U9C A34U, 0.65.
Turning to G17C G18U, the self-cleavage was 0.455.
Regarding G33A A37C, the self-cleavage came to 1.03.
The same measure for C2U C11U: 0.739.
For G22A G31A the value was 0.337; for G10C G35A, 0.848.
For U14A G45C the value was 0.636; for C15G A41U, 0.307.
U32C G45A: the self-cleavage is 0.776.
The same measure for G27U G36U: 0.328.
For A1C A40U the value was 0.484.
For G5A A42U the value was 0.353.
With U21G U32A, the self-cleavage turned out to be 0.389.
The same measure for C2G C29A: 0.311; for G4C G35A: 0.297.
The same measure for U14A A42U: 0.272; for C16A U19C: 0.39.
Turning to A1C G17A, the self-cleavage turned out to be 0.391.
Take A1G C29U: the self-cleavage came to 1.52.
For G4A A37G the value was 0.391; for A26C A40G, 0.285.
Regarding G8U G17A, the self-cleavage was determined as 0.652.
The same measure for G18C A40U: 0.339; for U9A U28G: 0.823.
Consider U12C G39A, for which the self-cleavage stood at 0.403.
As to G5C G22A, the self-cleavage amounted to 0.263.
The same measure for U9C A40C: 0.633; for G39A A40C: 0.387; for G39A A41G: 0.383.
As to C29G C43A, the self-cleavage was found to be 0.376.
A1C G45A: the self-cleavage was 0.578.
In the case of G22A G45A, the self-cleavage amounted to 0.369.
For C3U U7G the value was 1.25; for G18U A23U, 0.342; for U12C A37U, 0.727.
The same measure for U24C G33A: 1.36; for U19A U32C: 0.377.
The same measure for U19A U32A: 0.321; for C30G G36U: 0.697.
Regarding C2A U21C, the self-cleavage is 0.402.
Turning to A1G C2U, the self-cleavage worked out at 2.07.
Regarding U13G U24G, the self-cleavage turned out to be 0.654.
The same measure for G4A C16A: 0.907; for G33C G36U: 0.338; for G5A A37G: 0.773.
For C3U A44G the value was 1.49.
For U9G U14G the value was 0.991.
For G22C C29G, the self-cleavage was determined as 0.266.
For G22C C29U the value was 0.3; for U13A U28G, 1.4; for U9G G36U, 0.569.
For G5A A41C the value was 0.325; for C29A C38U, 0.652.
For G17U A34G the value was 0.604; for G5A U14G, 1.41.
For the variant C15G G33C, the self-cleavage was 1.04.
The same measure for U12A C38G: 0.719.
The same measure for C38A G45C: 0.344.

The values are drawn from the RNAGym collection of RNA variant scans (doi:10.7554/elife.80360).
